Measured values as given in US20240317847A1 (Bayer, published 2024).
Substitutions are numbered along the chain they refer to. In names and notes the source's numbering stands. Blank lines part the entries; values can stand above or below the binder they belong to.

Experiments:
[1] = molecular target: T1, human IL-11 (human, UniProt P20809 22-199); assay: SPR, IgG captured via anti-human Fc, IL-11 as analyte
T1 construct: bought from Invigate; also called hIL-11; hIL11
T1 sequence: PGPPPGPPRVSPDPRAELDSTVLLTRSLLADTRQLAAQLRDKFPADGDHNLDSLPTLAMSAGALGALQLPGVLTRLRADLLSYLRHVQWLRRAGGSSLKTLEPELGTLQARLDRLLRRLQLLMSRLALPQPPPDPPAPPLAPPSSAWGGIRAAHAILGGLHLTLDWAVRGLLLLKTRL
Protocol: (§1) Antibody binding affinity to hIL-11 (Invigate, Germany, e.g., lot #C121021-19) and mIL-11 (Invigate, Germany, e.g., lot #C210819-09) was detected using Biacore 8K. Each antibody was captured on an anti-human IgG Fc antibody immobilized CM5 sensor chip (GE). hIL-11 and mIL-11 at different concentrations (0, 5, 15.82 and 50 nM) in 1×HBS-EP+ (pH 7.4) (GE healthcare) were injected over the sensor chip at a flow rate of 30 μL/min for an association phase of 120 s, followed by 200 s dissociation phase. The chip was then regenerated by 10 mM Glycine, pH 1.5 after each binding cycle.
(§2) The sensorgrams of blank surface and buffer channel were subtracted from the test sensorgrams. The experimental data was fitted by 1:1 model using Langmiur analysis. Molecular weight of 19.3 kDa was used to calculate the molar concentration of human and mouse IL-11.
(§3) 16 AB were produced as described in Example 21 and binding of purified AB to human and mouse IL-11 was analyzed using SPR as described in Example 21.

[2] = molecular target: T2, murine IL-11 (mouse, UniProt P47873 22-199); assay: as above
T2 construct: bought from Invigate; also called mIL-11; mIL11
T2 sequence: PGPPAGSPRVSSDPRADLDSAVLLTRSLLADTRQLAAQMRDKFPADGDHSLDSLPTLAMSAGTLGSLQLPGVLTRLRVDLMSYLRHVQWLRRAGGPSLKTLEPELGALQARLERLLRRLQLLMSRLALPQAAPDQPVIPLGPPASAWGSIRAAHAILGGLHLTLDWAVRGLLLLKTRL
Protocol: as §1, §2, §3

[3] = molecular target: T1, human IL-11; assay: cell-based or functional assay
[4] = molecular target: T2, murine IL-11; assay: cell-based or functional assay
[5] = molecular target: T3, human IL-11 (Invigate, e.g., lot #C121021-19) (human, UniProt P20809 22-199); assay: SPR, Biacore 8K; antibody captured on anti-human IgG Fc chip, IL-11 analyte 0-50 nM, 1:1 fit
T3 construct: Bought protein; also called hIL-11; hIL11
T3 sequence: T1 sequence
Protocol: as §1, §2

[6] = molecular target: T4, murine IL-11 (Invigate, e.g., lot #C210819-09) (mouse, UniProt P47873 22-199); assay: as above
T4 construct: Bought protein; biotinylated where captured on streptavidin plates; also called mIL-11; mIL11
T4 sequence: T2 sequence
Protocol: as §1, §2

[7] = molecular target: T1, human IL-11; assay: SPR, antibody captured, IL-11 as analyte
Protocol: (§4) Antibodies were captured via anti-mouse Fc IgGs (“Mouse antibody capture kit, Order No. BR100383, Cytiva) covalently amine coupled to a Series S CM5 sensor chip (Cytiva). The amine coupling was carried out according to the manufacturer's instructions using 1-ethyl-3-(3-dimethylaminopropyl) carbodiimide hydrochloride (EDC), N-hydroxysuccinimide (NHS) and ethanolamine HCl, pH 8.5 (“Amine Coupling Kit” BR-1000-50, Cytiva.). Human IL-11 (Invigate, e.g., lot #C121021-19), and murine IL-11 (Invigate, e.g., lot #C210819-09) were used as analytes. […] Based on that experiment an IL-11 concentration range was chosen to optimally determine kinetics and affinity of anti-IL-11 antibodies in multicycle kinetics mode. The sensor surface was regenerated with glycine pH 1.7 after each antigen injection. Obtained sensorgrams were double referenced (subtraction of reference flow cell signal and buffer injection) and were fitted to a 1:1 Langmuir binding model to derive kinetic data using the Biacore T200 Evaluation software or the Biacore Insight software.
(§5) Deviations from closest human germlines in CDR regions and FW regions and potential CMC relevant residues in CDR regions were adjusted by site directed mutagenesis following standard molecular protocols or purchased from DNA synthesis providers. The generated DNA constructs were expressed by transient transfection of mammalian cells and purified as described in Example 15. Antibodies were then tested for human IL-11 and murine IL-11 binding by SPR as described in Example 16.

[8] = molecular target: T2, murine IL-11; assay: SPR, antibody captured, IL-11 as analyte
Protocol: as §4, §5

Kd [1]: 0.89 nM | Kd [2]: 0.64 nM | IC50, RGA [3]: 5.4 nM | IC50, RGA [4]: 1.6 nM
B1: TPP-31313 (antibody, IgG4, V domains shown)
VH: QVQLVESGGGVVQPGRSLRLSCAASGFTFSHYDMHWVRQAPGKGLEWVAVISYEGSNKFYADSVKGRFTISRDNSKNTLYLQMNSLRAEDTAVYYCARTPGSHFDYWGQGTLVTVSS
VL: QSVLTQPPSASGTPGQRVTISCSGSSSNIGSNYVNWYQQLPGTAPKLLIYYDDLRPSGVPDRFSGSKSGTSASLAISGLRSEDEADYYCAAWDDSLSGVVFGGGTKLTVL
notes: hIgG4 SPLE, lambda; also called FB; fundamental backbone

Kd [1]: 0.89 nM | Kd [2]: 0.3 nM | IC50, RGA [3]: 3.8 nM | IC50, RGA [4]: 1.2 nM
B2: TPP-31318 (antibody, IgG4, V domains shown)
VH: B1 VH with H35N
VL: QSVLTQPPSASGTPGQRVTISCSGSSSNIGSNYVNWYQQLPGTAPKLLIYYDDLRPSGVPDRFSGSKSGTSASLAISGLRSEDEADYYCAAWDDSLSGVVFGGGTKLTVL
notes: hIgG4 SPLE, lambda; FB - 1, back mutation VH-H35N

Kd [1]: 0.85 nM | Kd [2]: 0.62 nM | IC50, RGA [3]: 3.2 nM | IC50, RGA [4]: 1.1 nM
B3: TPP-31316 (antibody, IgG4, V domains shown)
VH: B1 VH with V11L
VL: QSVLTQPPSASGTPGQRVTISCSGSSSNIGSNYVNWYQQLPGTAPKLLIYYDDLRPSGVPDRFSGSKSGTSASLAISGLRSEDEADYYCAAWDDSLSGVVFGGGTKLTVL
notes: hIgG4 SPLE, lambda; FB - 1, back mutation VH-V11L

Kd [5]: 41 nM | Kd [6]: 53 nM
B4: TPP-31309 (antibody, human IgG4, V domains shown)
VH: B1 VH with Q1E, V5L, V11L, R16G, H35N, V37L, A49G, E54D, G55S, S63F
VL: QSVLTQPPSASGTPGQRVTISCSGSSSNIGNNAVNWYQQLPGTAPKLLIYYDDLLPSGVPDRFSGSKSGTSASLAISGLRSEDEADYYCSAWDDSLQGVVFGGGTKLTVL
notes: consecutive numbering; also called VH-G55S / VL-N97Q

Kd [5]: 40 nM | Kd [6]: 43 nM
B5: TPP-31310 (antibody, human IgG4, V domains shown)
VH: B1 VH with Q1E, V5L, V11L, R16G, H35N, V37L, A49G, E54D, G55S, S63F
VL: B4 VL with Q97S
notes: consecutive numbering; also called VH-G55S / VL-N97S

Kd [1]: 0.87 nM | Kd [2]: 0.65 nM | IC50, RGA [3]: 2.9 nM | IC50, RGA [4]: 1.7 nM
B6: TPP-31315 (antibody, IgG4, V domains shown)
VH: B1 VH with V5L
VL: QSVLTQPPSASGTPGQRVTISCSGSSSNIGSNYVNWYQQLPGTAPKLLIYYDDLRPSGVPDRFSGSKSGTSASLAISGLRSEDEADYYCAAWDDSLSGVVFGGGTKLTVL
notes: hIgG4 SPLE, lambda; FB - 1, back mutation VH-V5L

Kd [1]: 0.83 nM | Kd [2]: 0.58 nM | IC50, RGA [3]: 2.9 nM | IC50, RGA [4]: 1.5 nM
B7: TPP-31317 (antibody, IgG4, V domains shown)
VH: B1 VH with R16G
VL: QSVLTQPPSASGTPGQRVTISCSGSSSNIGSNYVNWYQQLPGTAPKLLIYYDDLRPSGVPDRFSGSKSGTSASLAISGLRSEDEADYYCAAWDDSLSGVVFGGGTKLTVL
notes: hIgG4 SPLE, lambda; FB - 1, back mutation VH-R16G

Kd [1]: 0.87 nM | Kd [2]: 0.59 nM | IC50, RGA [3]: 2.4 nM | IC50, RGA [4]: 1.2 nM
B8: TPP-31314 (antibody, IgG4, V domains shown)
VH: B1 VH with Q1E
VL: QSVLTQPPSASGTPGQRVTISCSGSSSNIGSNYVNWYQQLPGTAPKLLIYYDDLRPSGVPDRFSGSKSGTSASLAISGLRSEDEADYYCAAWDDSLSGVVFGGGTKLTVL
notes: hIgG4 SPLE, lambda; FB - 1, back mutation VH-Q1E

Kd [5]: 87 nM | Kd [6]: 58 nM
B9: TPP-31311 (antibody, human IgG4, V domains shown)
VH: B1 VH with Q1E, V5L, V11L, R16G, H35N, V37L, A49G, E54D, G55S, S63F
VL: B4 VL with Q97N, G98A
notes: consecutive numbering; also called VH-G55S / VL-G98A

Kd [7]: 6.3 nM | Kd [8]: 0.79 nM
B10: TPP-19841 (antibody, V domains shown)
VH: EVQLLESGGGLVQPGGSLRLSCAASGFTFSSYGMHWVRQAPGKGLEWVSVISYDGSYKYYADSVKGRFTISRDNSKNTLYLQMNSLRAEDTAVYYCAAGVPDYWGQGTLVTVSS
VL: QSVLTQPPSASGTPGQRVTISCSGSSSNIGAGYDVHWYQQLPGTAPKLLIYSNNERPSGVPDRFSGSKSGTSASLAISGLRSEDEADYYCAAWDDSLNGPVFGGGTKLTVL

Kd [7]: 13 nM | binding result [8]: no binding
B11: TPP-19864 (antibody, V domains shown)
VH: B10 VH with Y53G
VL: QSVLTQPPSASGTPGQRVTISCTGSSSNIGAGYDVHWYQQLPGTAPKLLIYSNNERPSGVPDRFSGSKSGTSASLAISGLRSEDEADYYCAAWDDSLNGPVFGGGTKLTVL

Kd [7]: 8.5 nM | Kd [8]: 1.4 nM
B12: TPP-19866 (antibody, V domains shown)
VH: B10 VH with S56G
VL: B11 VL

Kd [7]: 17 nM | Kd [8]: 28 nM
B13: TPP-19861 (antibody, V domains shown)
VH: B10 VH with G33A
VL: B11 VL

Kd [7]: 19 nM | Kd [8]: 4.7 nM
B14: TPP-19862 (antibody, V domains shown)
VH: B10 VH with H35S
VL: B11 VL

Kd [7]: 5.9 nM | Kd [8]: 0.68 nM
B15: TPP-19849 (antibody, V domains shown)
VH: B10 VH
VL: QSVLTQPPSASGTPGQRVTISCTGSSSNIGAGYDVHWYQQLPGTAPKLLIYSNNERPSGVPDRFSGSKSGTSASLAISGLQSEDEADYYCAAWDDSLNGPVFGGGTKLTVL

Kd [7]: 6.5 nM | Kd [8]: 1.6 nM
B16: TPP-19850 (antibody, V domains shown)
VH: B10 VH
VL: B11 VL with N98S

Kd [7]: 25 nM | Kd [8]: 3.6 nM
B17: TPP-19865 (antibody, V domains shown)
VH: B10 VH with D54S
VL: B11 VL

Kd [7]: 9 nM | Kd [8]: 2.1 nM
B18: TPP-19847 (antibody, V domains shown)
VH: B10 VH
VL: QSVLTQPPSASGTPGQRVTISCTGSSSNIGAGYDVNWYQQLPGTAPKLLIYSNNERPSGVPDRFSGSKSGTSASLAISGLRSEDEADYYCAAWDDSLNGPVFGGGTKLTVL

Kd [7]: 4.7 nM | Kd [8]: 0.64 nM
B19: TPP-19863 (antibody, V domains shown)
VH: B10 VH with V50A
VL: B11 VL

Kd [7]: 20 nM | Kd [8]: 5 nM
B20: TPP-19845 (antibody, V domains shown)
VH: B10 VH
VL: B11 VL with H36Y

Kd [7]: 7.3 nM | Kd [8]: 0.66 nM
B21: TPP-19842 (antibody, V domains shown)
VH: B10 VH
VL: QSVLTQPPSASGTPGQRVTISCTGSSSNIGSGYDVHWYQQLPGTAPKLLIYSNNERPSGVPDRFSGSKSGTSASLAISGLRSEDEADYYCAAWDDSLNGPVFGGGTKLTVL

Kd [7]: 6.2 nM | Kd [8]: 0.72 nM
B22: TPP-19868 (antibody, V domains shown)
VH: B10 VH with K58T
VL: B11 VL

Kd [7]: 17 nM | Kd [8]: 7.5 nM
B23: TPP-19843 (antibody, V domains shown)
VH: B10 VH
VL: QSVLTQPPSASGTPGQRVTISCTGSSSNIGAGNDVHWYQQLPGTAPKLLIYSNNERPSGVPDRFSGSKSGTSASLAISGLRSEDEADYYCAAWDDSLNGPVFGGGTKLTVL

Kd [7]: 52 nM | Kd [8]: 2.4 nM
B24: TPP-19848 (antibody, V domains shown)
VH: B10 VH
VL: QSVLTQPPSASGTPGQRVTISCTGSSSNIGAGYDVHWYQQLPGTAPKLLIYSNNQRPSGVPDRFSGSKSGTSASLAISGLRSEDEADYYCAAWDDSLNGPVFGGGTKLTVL

Kd [7]: 99 nM | Kd [8]: 9.9 nM
B25: TPP-19874 (antibody, V domains shown)
VH: B10 VH with A98R
VL: B11 VL

Kd [7]: 21 nM | Kd [8]: 4 nM
B26: TPP-19873 (antibody, V domains shown)
VH: B10 VH with Y57N
VL: B11 VL

Kd [7]: 5.5 nM | Kd [8]: 0.47 nM
B27: TPP-19872 (antibody, V domains shown)
VH: B10 VH with S49A
VL: B11 VL

Kd [7]: 27 nM | Kd [8]: 3.4 nM
B28: TPP-19867 (antibody, V domains shown)
VH: B10 VH with Y57S
VL: B11 VL
